From the supplement of paper PMC10065799, “High-throughput profiling of sequence recognition by tyrosine kinases and SH2 domains using bacterial peptide display” (eLife, 2023)

Key:
[1] = tested on: AncSZ; test: phosphorylation enrichment, bacterial display (enrichment ratio); higher = better substrate or ligand; peptides without Tyr show the background
[2] = target: EPHB1 (UniProt P54762); test: as above
[3] = target: EPHB2 (UniProt P29323); test: as above
[4] = target: FGFR1 (UniProt P11362); test: as above
FGFR1, sequence (P11362 whole entry, looked up): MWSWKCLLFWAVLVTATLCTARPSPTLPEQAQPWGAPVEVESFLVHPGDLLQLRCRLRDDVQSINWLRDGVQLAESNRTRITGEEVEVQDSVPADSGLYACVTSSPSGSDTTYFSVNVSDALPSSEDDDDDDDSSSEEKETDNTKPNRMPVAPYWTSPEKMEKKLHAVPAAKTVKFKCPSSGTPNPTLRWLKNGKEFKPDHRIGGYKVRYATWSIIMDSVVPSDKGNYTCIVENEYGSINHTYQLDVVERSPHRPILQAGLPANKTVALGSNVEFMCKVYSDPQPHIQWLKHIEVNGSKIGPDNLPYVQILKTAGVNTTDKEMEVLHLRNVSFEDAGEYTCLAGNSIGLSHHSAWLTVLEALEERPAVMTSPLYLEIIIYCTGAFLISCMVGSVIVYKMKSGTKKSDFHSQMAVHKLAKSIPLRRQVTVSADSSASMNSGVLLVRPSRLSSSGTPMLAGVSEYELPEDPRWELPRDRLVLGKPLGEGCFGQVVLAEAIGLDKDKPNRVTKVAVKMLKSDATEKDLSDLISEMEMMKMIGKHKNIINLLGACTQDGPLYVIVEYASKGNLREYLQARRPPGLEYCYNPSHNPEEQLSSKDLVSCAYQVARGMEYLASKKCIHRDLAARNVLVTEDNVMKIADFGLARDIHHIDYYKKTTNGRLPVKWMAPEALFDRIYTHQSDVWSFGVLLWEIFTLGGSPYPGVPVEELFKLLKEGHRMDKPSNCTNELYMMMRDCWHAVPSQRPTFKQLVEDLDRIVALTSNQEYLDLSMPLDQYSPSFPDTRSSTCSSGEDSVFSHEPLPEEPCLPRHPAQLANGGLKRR

[5] = target: FGFR3 (UniProt P22607); test: as above
[6] = tested on: Fer (mouse); test: as above
[7] = target: Fes (UniProt P07332); test: as above
Fes, sequence (P07332 whole entry, looked up): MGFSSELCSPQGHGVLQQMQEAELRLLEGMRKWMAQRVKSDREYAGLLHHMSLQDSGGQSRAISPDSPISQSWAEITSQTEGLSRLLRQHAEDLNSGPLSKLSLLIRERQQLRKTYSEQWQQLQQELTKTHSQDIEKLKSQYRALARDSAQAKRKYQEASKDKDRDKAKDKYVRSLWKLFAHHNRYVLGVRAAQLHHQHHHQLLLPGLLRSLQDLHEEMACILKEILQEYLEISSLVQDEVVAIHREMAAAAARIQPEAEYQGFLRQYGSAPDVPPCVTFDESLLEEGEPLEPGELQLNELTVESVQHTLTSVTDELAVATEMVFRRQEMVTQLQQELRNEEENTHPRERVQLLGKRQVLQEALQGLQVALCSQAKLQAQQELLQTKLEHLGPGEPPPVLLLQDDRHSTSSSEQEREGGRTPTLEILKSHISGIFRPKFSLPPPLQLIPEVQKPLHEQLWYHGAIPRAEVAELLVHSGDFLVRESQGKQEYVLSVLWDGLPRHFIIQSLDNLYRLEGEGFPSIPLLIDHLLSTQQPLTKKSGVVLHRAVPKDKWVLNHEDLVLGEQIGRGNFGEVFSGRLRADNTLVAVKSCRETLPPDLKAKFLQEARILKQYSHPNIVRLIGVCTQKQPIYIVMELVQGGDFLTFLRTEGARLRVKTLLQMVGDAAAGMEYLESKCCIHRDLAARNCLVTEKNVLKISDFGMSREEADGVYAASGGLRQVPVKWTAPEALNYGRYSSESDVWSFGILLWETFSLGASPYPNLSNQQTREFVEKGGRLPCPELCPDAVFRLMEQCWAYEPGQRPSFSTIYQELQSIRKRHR

[8] = target: Fyn (UniProt P06241); test: as above
Fyn, sequence (P06241 whole entry, looked up): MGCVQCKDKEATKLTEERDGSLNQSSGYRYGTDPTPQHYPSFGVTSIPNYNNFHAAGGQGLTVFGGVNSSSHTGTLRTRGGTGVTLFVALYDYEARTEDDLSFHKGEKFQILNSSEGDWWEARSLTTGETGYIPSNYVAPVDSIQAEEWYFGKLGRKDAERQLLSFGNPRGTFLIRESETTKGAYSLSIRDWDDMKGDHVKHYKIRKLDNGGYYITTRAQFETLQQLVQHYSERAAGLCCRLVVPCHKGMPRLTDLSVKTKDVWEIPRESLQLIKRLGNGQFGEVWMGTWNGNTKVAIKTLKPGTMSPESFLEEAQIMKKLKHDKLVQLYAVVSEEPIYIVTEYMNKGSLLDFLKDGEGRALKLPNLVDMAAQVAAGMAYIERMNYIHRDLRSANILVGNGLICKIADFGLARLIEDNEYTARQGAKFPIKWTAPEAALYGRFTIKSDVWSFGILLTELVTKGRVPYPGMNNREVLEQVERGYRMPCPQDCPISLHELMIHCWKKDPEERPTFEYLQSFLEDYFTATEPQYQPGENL

[9] = target: Hck (UniProt P08631); test: as above
Hck, sequence (P08631 whole entry, looked up): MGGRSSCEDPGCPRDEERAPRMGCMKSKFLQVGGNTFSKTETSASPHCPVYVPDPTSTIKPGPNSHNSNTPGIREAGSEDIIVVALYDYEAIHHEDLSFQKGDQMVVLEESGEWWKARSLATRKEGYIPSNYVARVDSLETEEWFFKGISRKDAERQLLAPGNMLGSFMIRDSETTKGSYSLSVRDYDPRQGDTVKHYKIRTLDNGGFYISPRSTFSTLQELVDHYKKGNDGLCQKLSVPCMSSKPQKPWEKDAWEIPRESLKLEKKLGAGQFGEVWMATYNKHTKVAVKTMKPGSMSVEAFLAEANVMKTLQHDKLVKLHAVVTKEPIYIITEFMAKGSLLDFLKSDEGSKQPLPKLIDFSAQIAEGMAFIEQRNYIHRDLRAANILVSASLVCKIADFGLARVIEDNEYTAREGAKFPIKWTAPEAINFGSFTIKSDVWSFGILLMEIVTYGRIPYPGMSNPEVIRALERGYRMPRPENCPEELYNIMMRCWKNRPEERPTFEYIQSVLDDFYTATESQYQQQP

[10] = target: Jak2 (UniProt O60674); test: as above
[11] = target: MERTK (UniProt Q12866); test: as above
MERTK, sequence (Q12866 whole entry, looked up): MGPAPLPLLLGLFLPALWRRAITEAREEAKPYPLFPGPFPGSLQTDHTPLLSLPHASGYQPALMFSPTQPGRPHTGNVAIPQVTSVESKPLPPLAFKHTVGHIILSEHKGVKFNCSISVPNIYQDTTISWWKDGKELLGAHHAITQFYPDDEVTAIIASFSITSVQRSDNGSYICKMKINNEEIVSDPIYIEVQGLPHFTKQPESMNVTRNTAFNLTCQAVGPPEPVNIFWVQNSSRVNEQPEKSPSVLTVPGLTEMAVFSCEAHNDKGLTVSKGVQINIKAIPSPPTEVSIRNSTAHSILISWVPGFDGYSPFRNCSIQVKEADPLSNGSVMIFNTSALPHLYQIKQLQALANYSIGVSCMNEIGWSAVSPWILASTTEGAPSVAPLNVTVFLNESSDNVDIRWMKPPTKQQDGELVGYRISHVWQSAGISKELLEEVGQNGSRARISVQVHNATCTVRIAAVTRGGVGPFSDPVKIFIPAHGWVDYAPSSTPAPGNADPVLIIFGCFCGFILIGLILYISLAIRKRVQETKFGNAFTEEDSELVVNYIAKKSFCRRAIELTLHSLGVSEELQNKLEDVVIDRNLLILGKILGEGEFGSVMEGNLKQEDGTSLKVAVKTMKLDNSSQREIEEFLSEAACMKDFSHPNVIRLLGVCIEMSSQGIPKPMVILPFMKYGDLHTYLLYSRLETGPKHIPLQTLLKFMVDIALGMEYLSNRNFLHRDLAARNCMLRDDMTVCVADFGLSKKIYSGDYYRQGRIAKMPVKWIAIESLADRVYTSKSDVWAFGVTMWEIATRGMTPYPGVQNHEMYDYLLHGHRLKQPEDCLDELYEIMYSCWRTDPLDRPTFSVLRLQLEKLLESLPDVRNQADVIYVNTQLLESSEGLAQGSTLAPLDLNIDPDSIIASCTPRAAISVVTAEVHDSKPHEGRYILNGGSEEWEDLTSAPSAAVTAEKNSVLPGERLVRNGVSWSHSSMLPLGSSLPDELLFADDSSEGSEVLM

[12] = tested on: c-Abl (mouse); test: as above
[13] = tested on: c-Src; test: as above
[14] = target: Grb2 SH2 (UniProt P62993); test: SH2 binding enrichment of the phosphorylated peptide, bacterial display (enrichment ratio); higher = better substrate or ligand; peptides without Tyr show the background
[15] = target: SHP2-C SH2; test: as above
[16] = target: c-Src SH2; test: as above
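Wherever SH2 binding enrichment of the phosphorylated peptide, bacterial display is given: peptide library displayed on the E. coli surface as eCPX fusions, selected cells deep-sequenced, score is each peptide's frequency after selection divided by its frequency in the input.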
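Wherever phosphorylation enrichment, bacterial display is given: 11-residue human phosphosite peptides and single-mutation variants displayed on the E. coli surface, counted by deep sequencing, each peptide's frequency after selection divided by its frequency in the unselected input library; frequency after pTyr selection over input frequency; kinase dosed for 20-30% of maximal phosphorylation in three min.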

EPHB1, sequence (P54762 whole entry, looked up): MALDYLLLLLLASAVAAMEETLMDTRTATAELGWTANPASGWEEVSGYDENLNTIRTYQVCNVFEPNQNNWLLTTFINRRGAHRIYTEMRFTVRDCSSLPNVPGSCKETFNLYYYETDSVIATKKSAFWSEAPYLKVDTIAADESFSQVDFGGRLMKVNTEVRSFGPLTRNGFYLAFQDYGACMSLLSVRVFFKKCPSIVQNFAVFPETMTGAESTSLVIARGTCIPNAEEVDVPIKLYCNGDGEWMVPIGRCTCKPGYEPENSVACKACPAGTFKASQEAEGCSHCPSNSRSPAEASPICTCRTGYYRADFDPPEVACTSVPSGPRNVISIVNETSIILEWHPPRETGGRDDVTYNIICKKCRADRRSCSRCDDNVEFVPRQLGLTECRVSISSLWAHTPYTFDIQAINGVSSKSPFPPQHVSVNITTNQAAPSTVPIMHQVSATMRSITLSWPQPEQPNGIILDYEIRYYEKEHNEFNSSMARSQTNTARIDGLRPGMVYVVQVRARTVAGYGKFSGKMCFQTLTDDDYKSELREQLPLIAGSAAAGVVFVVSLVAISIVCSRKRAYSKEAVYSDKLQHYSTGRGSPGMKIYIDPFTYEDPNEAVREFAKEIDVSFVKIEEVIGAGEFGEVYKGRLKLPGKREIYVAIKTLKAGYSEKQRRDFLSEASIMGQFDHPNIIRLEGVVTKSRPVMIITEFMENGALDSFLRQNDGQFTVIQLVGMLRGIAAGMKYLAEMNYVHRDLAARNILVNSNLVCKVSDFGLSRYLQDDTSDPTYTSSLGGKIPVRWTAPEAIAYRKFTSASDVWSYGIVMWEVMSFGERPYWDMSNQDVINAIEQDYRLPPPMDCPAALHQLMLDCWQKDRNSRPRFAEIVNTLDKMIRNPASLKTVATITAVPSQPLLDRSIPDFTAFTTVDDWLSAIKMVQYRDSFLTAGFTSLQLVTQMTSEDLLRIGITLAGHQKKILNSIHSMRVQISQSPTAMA

Row | SH2 binding enrichment [14] | SH2 binding enrichment [15] | SH2 binding enrichment [16] | Sequence | phosphorylation enrichment [1] | phosphorylation enrichment [2] | phosphorylation enrichment [3] | phosphorylation enrichment [4] | phosphorylation enrichment [5] | phosphorylation enrichment [6] | phosphorylation enrichment [7] | phosphorylation enrichment [8] | phosphorylation enrichment [9] | phosphorylation enrichment [10] | phosphorylation enrichment [11] | phosphorylation enrichment [12] | phosphorylation enrichment [13]
1 | 0.748 | 0.884 | 0.983 | TLLERYGMIEI [ACSF3_Y355_T358I] | 0.798 | 0.606 | 0.535 | 0.515 | 0.644 | 0.632 | 1.06 | 0.525 | 0.465 | 1.02 | 0.489 | 0.802 | 0.472
2 | 0.706 | 0.565 | 1.65 | TRSYDYTEGGD [FGF7_Y58_M59T] | 0.898 | 0.439 | 0.465 | 0.61 | 0.59 | 0.414 | 0.976 | 0.56 | 0.446 | 0.876 | 0.463 | 0.642 | 0.375
3 | 0.998 | 1.11 | 0.647 | TTKGSYSLYVR [HCK_Y180_S183Y] | 1.02 | 0.667 | 0.581 | 0.464 | 0.671 | 0.474 | 1.16 | 0.462 | 0.458 | 1.02 | 0.43 | 0.666 | 0.373
4 | 0.667 | 0.757 | 0.591 | TVFSDYLHPQF [CCPG1_Y569_YF] | 4.45 | 1.02 | 0.573 | 1.03 | 0.938 | 0.43 | 1.22 | 0.69 | 0.643 | 1.83 | 0.805 | 1.53 | 1.07
5 | 2.18 | 0.676 | 0.718 | TVHCDYLNIPH [TAF1L_Y1385] | 0.959 | 3.02 | 0.706 | 6.63 | 3.97 | 0.46 | 1.02 | 0.464 | 0.55 | 0.941 | 0.442 | 0.521 | 0.718
6 | 1.02 | 2.08 | 0.752 | TVLWWYTGTRP [UGT1A1_Y337_R336W] | 1.3 | 0.458 | 0.513 | 0.389 | 0.68 | 0.398 | 1.32 | 0.4 | 0.41 | 1.23 | 0.277 | 0.599 | 0.311

Second part, the sequence before the results:

Row | Sequence | SH2 binding enrichment [14] | SH2 binding enrichment [15] | SH2 binding enrichment [16] | phosphorylation enrichment [1] | phosphorylation enrichment [2] | phosphorylation enrichment [3] | phosphorylation enrichment [4] | phosphorylation enrichment [5] | phosphorylation enrichment [6] | phosphorylation enrichment [7] | phosphorylation enrichment [8] | phosphorylation enrichment [9] | phosphorylation enrichment [10] | phosphorylation enrichment [11] | phosphorylation enrichment [12] | phosphorylation enrichment [13]
7 | TKLKDYYIFNK [CCDC42_Y149_A144T] | 1.05 | 1.1 | 0.88 | 1.02 | 0.811 | 0.691 | 4.92 | 3.16 | 0.538 | 0.91 | 0.579 | 0.752 | 1.49 | 1.28 | 0.736 | 1.37
8 | TLSGTYQYIIA [FOXL2_Y81_I80T] | 0.828 | 1.43 | 1.93 | 1.05 | 5.25 | 2.21 | 5.91 | 3.44 | 5.51 | 1.08 | 1.06 | 3.11 | 1.05 | 7.42 | 1.05 | 1.17
9 | TNFPLYLRSLE [MTM1_Y71_R69P_YF] | 0.883 | 0.976 | 0.675 | 0.716 | 0.685 | 0.51 | 0.449 | 0.544 | 0.401 | 0.761 | 0.413 | 0.505 | 1.13 | 0.378 | 0.493 | 0.492
10 | TPGPNYRPGYN [USH2A_Y463] | 0.671 | 0.488 | 0.442 | 0.562 | 0.39 | 0.542 | 0.232 | 0.676 | 0.294 | 0.549 | 0.432 | 0.346 | 0.597 | 0.487 | 0.404 | 0.309
11 | TQFWLYFAGNL [SLC25A5_Y112] | 0.742 | 0.557 | 0.509 | 1.23 | 0.681 | 0.665 | 0.534 | 1 | 0.498 | 1.57 | 0.376 | 0.479 | 1.64 | 0.576 | 1.22 | 0.652
12 | TRHDEYLEVTK [MAP1A_Y2217] | 1.15 | 0.598 | 0.506 | 0.882 | 0.464 | 0.547 | 0.589 | 1.11 | 0.421 | 1.03 | 0.565 | 0.399 | 0.726 | 0.343 | 0.612 | 0.401
13 | TTPAVYARVTK [CTRB2_Y246_A250T] | 0.696 | 0.383 | 2.11 | 0.443 | 0.665 | 0.768 | 0.262 | 0.496 | 0.378 | 0.442 | 2.46 | 2.42 | 0.618 | 0.725 | 1.32 | 3.55
14 | TVEDHYFEGGI [TKT_Y563_YF] | 0.814 | 0.805 | 0.391 | 1.1 | 0.726 | 0.625 | 0.762 | 1.03 | 0.559 | 1.05 | 0.519 | 0.497 | 0.776 | 0.444 | 0.798 | 0.472
15 | TVFSDYLHPQY [CCPG1_Y569] | 0.88 | 0.76 | 0.541 | 2.34 | 0.727 | 0.505 | 0.699 | 0.723 | 0.398 | 0.944 | 0.43 | 0.457 | 1.36 | 0.417 | 0.785 | 0.498
16 | TVLWLYTGTRP [UGT1A1_Y337_R336L] | 1.28 | 1.3 | 1.06 | 1.17 | 0.548 | 0.487 | 0.369 | 0.742 | 0.527 | 1.27 | 0.68 | 0.466 | 1.06 | 0.318 | 0.532 | 0.255
